Two molecules from US20150344580A1 (MSM PROTEIN TECHNOLOGIES, published 2015) can be followed below.

In test [1] the target is T1, human CCR3 (human, UniProt P51677 1-355).
T1 construct: whole, on cells; CHO cells
T1 sequence (looked up): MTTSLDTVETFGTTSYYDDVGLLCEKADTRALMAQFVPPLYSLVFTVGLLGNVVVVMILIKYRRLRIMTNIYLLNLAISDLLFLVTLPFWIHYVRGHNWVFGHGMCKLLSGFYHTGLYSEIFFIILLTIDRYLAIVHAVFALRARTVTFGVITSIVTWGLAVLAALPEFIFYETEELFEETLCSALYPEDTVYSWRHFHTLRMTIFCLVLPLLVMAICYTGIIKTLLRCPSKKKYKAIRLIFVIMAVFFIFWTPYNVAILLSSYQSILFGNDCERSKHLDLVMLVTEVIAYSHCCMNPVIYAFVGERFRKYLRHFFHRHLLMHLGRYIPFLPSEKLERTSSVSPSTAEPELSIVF
In words: FACS, CHO-human CCR3 cells. As to the method: (§1) In more details, the cell staining procedure was: […] cell suspension in 10 μl FACS buffer (1×PBS, 2.0% FBS, 0.2% sodium azide) was mixed with 10 μl of 200 nM the corresponding anti-CCR7 MAB and incubated on ice for 30 min. Washing step—after the incubation 150 μl of FACS buffer was added to the cell sample, the samples were mixed gently by up-down pipetting the cell suspension. Then the samples were centrifuged at 1100 rpm for 5 minutes, and supernatants were removed. Washing step was repeated ones. Then 10 μl of anti-human PE-(Fab)2 form Jackson Immuno Research Lab. #709-116-098 diluted 40 times in FACS buffer were added to the cells and the cells were re-suspended by up-down pipetting. After 20 min. incubation on ice in dark the washing step was repeated twice. The washed cells were mixed with 100 μl of FIX buffer (0.5% Paraformaldehyde solution in PBS). Fixed samples were stored in dark on ice and analyzed by FACS on Guava PCA-96 flow cytometer. The fluorescent signals collected from individual cells were obtained using fluorescence Activated Cell Sorter (FACS).

For test [2], the target named is T2, human CXCR5 (human, UniProt P32302 1-372).
T2 construct: whole, on cells; CHO cells
T2 sequence (looked up): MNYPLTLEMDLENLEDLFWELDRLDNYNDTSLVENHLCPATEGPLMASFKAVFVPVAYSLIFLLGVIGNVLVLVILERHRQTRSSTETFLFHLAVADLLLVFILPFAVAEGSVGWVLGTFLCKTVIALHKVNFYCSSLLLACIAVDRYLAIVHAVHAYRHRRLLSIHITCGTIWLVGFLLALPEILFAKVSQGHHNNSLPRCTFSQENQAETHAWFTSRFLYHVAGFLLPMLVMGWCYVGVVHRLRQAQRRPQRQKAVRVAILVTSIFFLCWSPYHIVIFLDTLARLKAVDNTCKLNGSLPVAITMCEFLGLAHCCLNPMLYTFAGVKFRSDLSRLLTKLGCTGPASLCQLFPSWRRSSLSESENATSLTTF
In words: FACS, CHO-human CXCR5 cells.

The target in test [3] is T3, human CCR10 (human, UniProt P46092 1-362).
T3 construct: whole, on cells; CHO cells
T3 sequence (looked up): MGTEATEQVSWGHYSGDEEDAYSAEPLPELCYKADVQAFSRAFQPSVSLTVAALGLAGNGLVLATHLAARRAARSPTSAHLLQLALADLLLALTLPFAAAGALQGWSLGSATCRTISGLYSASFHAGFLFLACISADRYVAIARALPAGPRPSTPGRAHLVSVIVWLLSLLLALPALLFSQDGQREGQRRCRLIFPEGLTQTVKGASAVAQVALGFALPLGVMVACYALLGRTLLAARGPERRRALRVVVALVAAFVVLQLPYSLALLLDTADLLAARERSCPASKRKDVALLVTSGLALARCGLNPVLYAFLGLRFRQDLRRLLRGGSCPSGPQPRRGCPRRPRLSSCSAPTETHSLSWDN
In words: FACS, CHO-human CCR10 cells.

Test [4] concerns the target T4, human CXCR7 (human, UniProt P25106 1-362).
T4 construct: whole, on cells; CHO cells
Description: FACS, CHO-human CXCR7 cells.

For test [5], the target named is T5, mouse CCR6 (mouse, UniProt O54689 1-367).
T5 construct: whole, on cells; CHO cells; also called CCR6 (mouse)
T5 sequence (looked up): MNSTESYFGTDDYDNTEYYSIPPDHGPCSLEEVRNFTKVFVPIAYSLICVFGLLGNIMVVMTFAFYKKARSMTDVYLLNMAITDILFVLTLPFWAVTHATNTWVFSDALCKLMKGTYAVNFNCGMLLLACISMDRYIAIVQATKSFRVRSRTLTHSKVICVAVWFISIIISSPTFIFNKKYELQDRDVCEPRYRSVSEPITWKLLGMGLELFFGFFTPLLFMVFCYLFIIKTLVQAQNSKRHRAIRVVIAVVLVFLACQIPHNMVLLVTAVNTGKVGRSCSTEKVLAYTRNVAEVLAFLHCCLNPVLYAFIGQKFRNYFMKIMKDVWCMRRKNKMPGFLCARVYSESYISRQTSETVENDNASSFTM
In words: FACS, CHO-mouse CCR6 cells. As to the method: as §1

For test [6], the target named is T6, human CCR5 (human, UniProt P51681 1-352).
T6 construct: whole, on cells; CHO cells
In words: FACS, CHO-human CCR5 cells. The procedure: as §1

Test [7] has as its target T7, human CXCR3 (human, UniProt P49682 1-368).
T7 construct: whole, on cells; R1610 cells
T7 sequence (looked up): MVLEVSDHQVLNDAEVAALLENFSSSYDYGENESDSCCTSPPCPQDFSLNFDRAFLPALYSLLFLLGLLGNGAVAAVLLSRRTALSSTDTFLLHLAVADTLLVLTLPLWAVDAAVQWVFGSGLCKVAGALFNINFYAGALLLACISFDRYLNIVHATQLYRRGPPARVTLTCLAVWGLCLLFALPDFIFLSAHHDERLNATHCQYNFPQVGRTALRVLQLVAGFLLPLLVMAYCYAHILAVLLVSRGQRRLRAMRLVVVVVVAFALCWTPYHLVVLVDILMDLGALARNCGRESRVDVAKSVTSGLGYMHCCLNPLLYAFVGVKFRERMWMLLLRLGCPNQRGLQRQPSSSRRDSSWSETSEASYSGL
In words: FACS, R1610-human CXCR3 cells. As to the method:
as §1

T6 sequence (P51681 whole entry): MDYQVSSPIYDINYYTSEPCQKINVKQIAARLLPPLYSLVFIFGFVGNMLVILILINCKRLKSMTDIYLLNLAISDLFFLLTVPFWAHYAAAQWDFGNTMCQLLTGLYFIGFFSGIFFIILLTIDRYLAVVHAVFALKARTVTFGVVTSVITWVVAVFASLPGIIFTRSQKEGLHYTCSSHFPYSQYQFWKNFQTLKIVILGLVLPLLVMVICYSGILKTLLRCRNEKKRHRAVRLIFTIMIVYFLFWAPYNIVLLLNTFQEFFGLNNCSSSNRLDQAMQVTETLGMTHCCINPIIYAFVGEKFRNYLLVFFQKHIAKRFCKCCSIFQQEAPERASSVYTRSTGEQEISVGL
T4 sequence (P25106 whole entry): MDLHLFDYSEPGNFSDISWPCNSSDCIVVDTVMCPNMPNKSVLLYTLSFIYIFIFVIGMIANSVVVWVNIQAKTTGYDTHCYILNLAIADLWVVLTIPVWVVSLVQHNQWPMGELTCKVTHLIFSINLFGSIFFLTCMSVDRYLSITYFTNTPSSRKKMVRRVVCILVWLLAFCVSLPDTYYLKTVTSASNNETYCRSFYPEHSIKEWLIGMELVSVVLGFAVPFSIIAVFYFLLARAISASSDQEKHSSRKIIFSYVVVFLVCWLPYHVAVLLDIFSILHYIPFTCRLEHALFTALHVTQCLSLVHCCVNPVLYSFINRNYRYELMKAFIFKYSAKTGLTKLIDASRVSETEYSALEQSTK

B1: MSM-R710 (fully human anti-human CCR7 antibody, IgG1) (antibody, V domains shown)
VH: EVQLLESGGGLVQPGGSLRLSCAASGFTFSNYTMHWVRQAPGKGLEWVSGIGPRSGRTYYADSVKGRFTISRDNSKNTLYLQMNSLRAEDTAVYYCARSYAYQYRGFDYWGQGTLVTVSS
VL: EIVLTQSPGTLSLSPGERATLSCRASQSVSSSYLAWYQQKPGQAPRLLIYGASSRATGIPDRFSGSGSGTDFTLTISRLEPEDFAVYYCQSSVTFGQGTKVEIKR
notes: IgG1 format
On to B1, for which the binding result in test [1], in test [2], in test [3], in test [4], in test [5] and in test [6] was “no binding (tested: 200 nM MAB mixed 1:1 with cells)” throughout. The binding result in test [7] is reported as “no binding (tested: 200 nM MAB mixed 1:1 with cells)”.

B2: MSM-R735 (fully human anti-human CCR7 antibody, IgG1) (antibody)
heavy: not shown
light: EIVLTQSPGTLSLSPGERATLSCRASQSVSSSYLAWYQQKPGQAPRLLIYGASSRATGIPDRFSGSGSGTDFTLTISRLEPEDFAVYYCQQGSPVTFGQGTKVEIKRTVAAPSVFIFPPSDEQLKSGTASVVCLLNNFYPREAKVQWKVDNALQSGNSQESVTEQDSKDSTYSLSSTLTLSKADYEKHKVYACEVTHQGLSSPVTKSFNRGEC
notes: IgG1 format; also called R735 Human IgG1
Regarding B2, the binding result in test [1], in test [2], in test [3], in test [4], in test [5] and in test [6] was “no binding (tested: 200 nM MAB mixed 1:1 with cells)” each time. The binding result in test [7] is listed as “no binding (tested: 200 nM MAB mixed 1:1 with cells)”.
